Measured values as given in the RNAGym collection of RNA variant scans (doi:10.7554/elife.80360).

B1: Hammerhead Ribozyme (parent)
chain: ACCGGAUGUGCUUUCCGGUCUGAUGAGUCCGUGAGGACGAAACAG

Variants of: B1
Experiment: self-cleavage, relative activity (ratio to wild type); higher = more cleavage; co-transcriptional

In order of falling self-cleavage:
1. ACCGGAUGUGCUUUCCGAUCUGAUGAGUCCAUGAGGACGAAACAG  1.05
2. ACCGGAUGUGCUUUCCGAUCUGAUGAGUCCUUGAGGACGAAACAG  0.938
3. ACCGGAUGUGCUUUCCGAUCUGAUGAGUCUGUGAGGACGAAACAG  0.783
4. ACCGGAUGUGCUUUCCGAUCUGACGAGUCCGUGAGGACGAAACAG  0.757
5. ACCGGAUGUGCUUUCCGAUCUGAAGAGUCCGUGAGGACGAAACAG  0.748
6. ACCGGAUGUGCUUUCCGAUCUGAUGAGUCCCUGAGGACGAAACAG  0.74
7. ACCGGAUGUGCUUUCCGAUCUGAGGAGUCCGUGAGGACGAAACAG  0.678
8. ACCGGAUGUGCUUUCCGAUCUGAUGAGUCCGUGAGGGCGAAACAG  0.676
9. ACCGGAUGUGCUUUCCGCUCUGAUGAGUCCGUGAGGACGAAACAG  0.62
10. ACCGGAUGUGCUUUCCGAUCUGAUGAGUCCGUGAGGCCGAAACAG  0.611
11. ACCGGAUGUGCUUUCCGAUCUGAUGAGUCAGUGAGGACGAAACAG  0.607
12. ACCGGAUGUGCUUUCCGAUCUGAUGAGUCCGUGAUGACGAAACAG  0.594
13. ACCGGAUGUGCUUUCCGAUCUGAUGAGUUCGUGAGGACGAAACAG  0.574
14. ACCGGAUGUGCUUUCCGAUCUGAUGAGUCCGUGAGGUCGAAACAG  0.55
15. ACCGGAUGUGCUUUCCGAUCUGAUGAGUGCGUGAGGACGAAACAG  0.537
16. ACCGGAUGUGCUUUCCGAUCUGAUGAGUCCGUGAAGACGAAACAG  0.536
17. ACCGGAUGUGCUUUCCGCUCUGAUGAGUUCGUGAGGACGAAACAG  0.506
18. ACCGGAUGUGCUUUCCGCUCUGAUGAGUCCGUGAGGUCGAAACAG  0.483
19. ACCGGAUGUGCUUUCCGAUCUGAUGAGUCCGUGACGACGAAACAG  0.479
20. ACCGGAUGUGCUUUCCGAUCUGAUGAGUCCGUGAGGACGAAACAU  0.469
21. ACCGGAUGUGCUUUCCGCUCUGAUGAGUCAGUGAGGACGAAACAG  0.451
22. ACCGGAUGUGCUUUCCGAUCUGAUGAGUCCGUGAGGACGAAACAC  0.446
23. ACCGGAUGUGCUUUCCGAUCUGAUGAGUACGUGAGGACGAAACAG  0.44
24. ACCGGAUGUGCUUUCCGAUCUGAUGUGUCCGUGAGGACGAAACAG  0.423
25. ACCGGAUGUGCUUUCCGAUCUCAUGAGUCCGUGAGGACGAAACAG  0.417
26. ACCGGAUGUGCUUUCCGCUCUGAUGAGUCCGUGAGGGCGAAACAG  0.398
27. ACCGGAUGUGCUUUCCGCUCUGAUGAGUCCGUGAGGACGCAACAG  0.389
28. ACCGGAUGUGCUUUCCGAUCUGAUGAGUCGGUGAGGACGAAACAG  0.381
29. ACCGGAUGUGCUUUCCGAUCUGAUGAGUCCGUGAGGACGAACCAG  0.376
30. ACCGGAUGUGCUUUCCGCUCUGAUGAGUACGUGAGGACGAAACAG  0.374
31. ACCGGAUGUGCUUUCCGAUCUUAUGAGUCCGUGAGGACGAAACAG  0.373
32. ACCGGAUGUGCUUUCCGCUCUGAUGAGUCCGUGAGGCCGAAACAG  0.373
33. ACCGGAUGUGCUUUCCGCUCUGAUGAGUCCGUGAGGACGAAGCAG  0.372
34. ACCGGAUGUGCUUUCCGCUCUGAUGAGUCGGUGAGGACGAAACAG  0.372
35. ACCGGAUGUGCUUUCCGAUCUGAUGAGUCCGUGAGGACGAGACAG  0.37
36. ACCGGAUGUGCUUUCCGCUCUGAUGAGUCCGUGAGGACGGAACAG  0.369
37. ACCGGAUGUGCUUUCCGAUCUGAUGCGUCCGUGAGGACGAAACAG  0.366
38. ACCGGAUGUGCUUUCCGAUCUGGUGAGUCCGUGAGGACGAAACAG  0.361
39. ACCGGAUGUGCUUUCCGCUCUGAUGAGUCCGUGAGGACGAUACAG  0.36
40. ACCGGAUGUGCUUUCCGAUCUGAUGAGUCCGUGAGGACGAUACAG  0.358
41. ACCGGAUGUGCUUUCCGAUCUGCUGAGUCCGUGAGGACGAAACAG  0.355
42. ACCGGAUGUGCUUUCCGAUCUGAUGAGUCCGUGAGGACGAAACAA  0.354
43. ACCGGAUGUGCUUUCCGAUCUGAUGAGUCCGUGAGGACGAAGCAG  0.347
44. ACCGGAUGUGCUUUCCGAUCUGUUGAGUCCGUGAGGACGAAACAG  0.345
45. ACCGGAUGUGCUUUCCGCUGUGAUGAGUCCGUGAGGACGAAACAG  0.34
46. ACCGGAUGUGCUUUCCGCUUUGAUGAGUCCGUGAGGACGAAACAG  0.339
47. ACCGGAUGUGCUUUCCGCUCUGAUGAGUCCGUGAGGACGUAACAG  0.339
48. ACCGGAUGUGCUUUCCGAUCUGAUGAGUCCGUGAGGACGAAUCAG  0.338
49. ACCGGAUGUGCUUUCCGAUCUGAUGGGUCCGUGAGGACGAAACAG  0.331
50. ACCGGAUGUGCUUUCCGCUCUGAUGAGUCCGUGAGGACGAACCAG  0.328
51. ACCGGAUGUGCUUUCCGAUCUGAUGAGUCCGUGAGGACGACACAG  0.328
52. ACCGGAUGUGCUUUCCGCUCUGAUGAGUCCGUGAGGACGAAUCAG  0.325
53. ACCGGAUGUGCUUUCCGCUCUGAUGAGUCCGUGAGGACGAGACAG  0.313
54. ACCGGAUGUGCUUUCCGCUCUGAUGAGUCCGUGAGGACGACACAG  0.303
55. ACCGGAUGUGCUUUCCGCUCUGAUGAGUGCGUGAGGACGAAACAG  0.302
56. ACCGGAUGUGCUUUCCGCUAUGAUGAGUCCGUGAGGACGAAACAG  0.285
57. ACCGGAUGUGCUUUCCGAUCUAAUGAGUCCGUGAGGACGAAACAG  0.276
